A word on the Kd: it is the equilibrium constant for the complex coming apart. A low value points to higher affinity.

This data set addresses T1, Rhed (RNA-binding heme domain of DGCR8), heme-bound (Homo sapiens, UniProt Q8WYQ5 285-478).
T1 sequence: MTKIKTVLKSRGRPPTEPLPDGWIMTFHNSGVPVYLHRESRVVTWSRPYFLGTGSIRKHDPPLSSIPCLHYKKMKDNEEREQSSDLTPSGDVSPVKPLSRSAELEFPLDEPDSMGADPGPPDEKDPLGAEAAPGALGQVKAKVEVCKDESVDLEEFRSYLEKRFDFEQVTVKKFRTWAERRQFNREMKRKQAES
The data set can be described thus: EMSA. (In EMSA bound probe runs differently from free probe, usually more slowly.)

Molecule GGAGACUGAUUGUCAUAUGUCGUUUGUGGGAUCCGUCUCC (structured_RNA) [pri-miR-340 apical stem-loop fragment] had a Kd of 3.5 µM.

(Values after paper doi:10.1101/2020.05.05.078014.)
